From patent US11896644B2, “Inhibition of beta-arrestin oligomerization in tauopathy” (UNIVERSITY OF SOUTH FLORIDA, priority 2020, dated 2024)

Columns and labels:
tau in Hela-V5-tau cells = assay: Tau immunocytochemistry in Hela-V5-tau cells expressing YFP-β-arrestin2 mutants; assay type: cell-based
Excerpt: (§1) FIGS. 11A to 11E show β-arrestin2 oligomerization mutants reduce tau aggregates. FIG. 11A contains representative confocal images of total tau in Hela-V5-tau cells transfected with YFP, YFP-β-arrestin2 ΔIP6C, or YFP-β-arrestin2 ΔIP6N (Scale bar=10 μm). FIG. 11B contains representative confocal images of proximity ligation assay (PLA) in Hela-V5-tau cells transfected with β-arrestin2-flag and β-arrestin2-myc with YFP control, YFP-β-arrestin2 ΔIP6C, or YFP-β-arrestin2 ΔIP6N.
Cells were fixed with 4% paraformaldehyde for 15 min at room temperature and washed with 0.2% triton in TBS and blocked using 3% BSA with 0.1% triton x-100 for 1 hr, incubated with primary antibodies for overnight at 4° C. and fluorescently labeled secondary antibodies for 45 min at room temperature. For immunohistochemistry, mice were perfused with PBS and fixed with 4% paraformaldehyde. […] Images were captured with the Olympus FV10i confocal microscope (Tokyo, Japan), and the immunoreactivities were quantified using the Image J software (National Institutes of Health, Bethesda, MD). Immunoreactivities were quantitated from every 12th serial section through an entire hippocampus. […] Regions of interest were chosen randomly, and investigators were blinded to experimental conditions during image acquisition and quantification. […]

p62 = biological target: T1, p62 (Homo sapiens, UniProt Q13501); assay: Interaction of β-arrestin2 variants with p62 (flag/p62 PLA); assay type: cell-based; conditions: Hela-V5-tau cells
T1 construct: endogenous in cells; host or cells: Hela-V5-tau cells
Excerpt: FIGS. 12A to 12E show β-arrestin2 interacts with p62, and β-arrestin2 oligomerization inhibits p62 self-interaction. FIG. 12A contains representative confocal images of mCherry and EGFP in Hela-V5-tau cells transfected with mCherry-GFP-p62 together with control vector, β-arrestin2-flag, or β-arrestin2 ΔIP6N-flag (Scale bar=10 μm). […] The box and whisker plots show all data points, and the box plots show all data points, the median and IQR, and the minimal and maximal values. FIG. 12C contains representative immunoblots of indicated proteins from Hela-V5-tau cells transfected GFP or GFP-β-arrestin2 with/without HA-p62. Note that β-arrestin2 is present in HA immune complexes only in the presence of HA-p62, whereas β-arrestin2 is not detected in control IgG beads. […] Lysates were subjected to IP for HA. […] FIG. 12F show quantification of flag/p62 PLA puncta/cell (N=4 independent experiments, #P<0.0001).
Given the effects on p62 autophagy flux, whether β-arrestin2 physically interacts with p62 was tested. […] Given that β-arrestin2 oligomeric mutants, ΔIP6C and ΔIP6N, reduced tau aggregates by slowing tau turnover, next tested was whether β-arrestin2 ΔIP6C and ΔIP6N mutants affect p62 self-association by a proximity ligation assays (PLA) as well as co-IP. […]

[1] = biological target: T2, βarrestin1 homo-oligomers (Homo sapiens, UniProt P49407); assay: PLA for βarrestin1 homo-oligomers in HeLa-V5-tau cells; assay type: cell-based
T2 construct: expressed in transfected cells; host or cells: HeLa-V5-tau cells
T2 sequence (P49407 whole entry): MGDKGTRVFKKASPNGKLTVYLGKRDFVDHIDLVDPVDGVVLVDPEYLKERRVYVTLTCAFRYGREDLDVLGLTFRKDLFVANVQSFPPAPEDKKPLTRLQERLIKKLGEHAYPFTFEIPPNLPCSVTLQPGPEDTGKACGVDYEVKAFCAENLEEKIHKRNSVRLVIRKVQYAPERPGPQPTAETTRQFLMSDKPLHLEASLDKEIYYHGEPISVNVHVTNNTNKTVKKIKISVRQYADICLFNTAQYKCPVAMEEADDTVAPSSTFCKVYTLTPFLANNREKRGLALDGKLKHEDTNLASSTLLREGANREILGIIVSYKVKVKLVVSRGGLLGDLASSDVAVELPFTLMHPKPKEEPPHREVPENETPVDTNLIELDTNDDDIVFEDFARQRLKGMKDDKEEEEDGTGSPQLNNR
T2 sequence (P49407 whole entry): as above
Excerpt: FIGS. 24A to 24D show β-arrestin2 oligomerization mutants impair β-arrestin1 homo-oligomers and β-arrestin1/β-arrestin2 hetero-oligomers. HeLa-V5-tau cells were co-transfected with vector control or β-arrestin2 oligomerization mutants (ΔIP6C or ΔIP6N) together with βarrestin1-GFP+βarrestin1-myc or βarrestin2-myc. Cells were then subjected to proximity ligation assay (PLA) using antibodies against GFP and mycto detect βarrestin1 homo-oligomers (FIGS. 24A,24B) and βarrestin1/βarrestin2 hetero-oligomers and DAPI staining (FIGS. 24C,24D) (puncta).

[2] = biological target: T3, β-arrestin2-flag and β-arrestin2-myc interaction (Rattus norvegicus, UniProt P29067); assay: PLA of β-arrestin2-flag and β-arrestin2-myc interaction in presence of mutants; assay type: cell-based; conditions: Hela-V5-tau cells
T3 construct: expressed in transfected cells; host or cells: Hela V5-tau cells
T3 sequence (P29067 whole entry): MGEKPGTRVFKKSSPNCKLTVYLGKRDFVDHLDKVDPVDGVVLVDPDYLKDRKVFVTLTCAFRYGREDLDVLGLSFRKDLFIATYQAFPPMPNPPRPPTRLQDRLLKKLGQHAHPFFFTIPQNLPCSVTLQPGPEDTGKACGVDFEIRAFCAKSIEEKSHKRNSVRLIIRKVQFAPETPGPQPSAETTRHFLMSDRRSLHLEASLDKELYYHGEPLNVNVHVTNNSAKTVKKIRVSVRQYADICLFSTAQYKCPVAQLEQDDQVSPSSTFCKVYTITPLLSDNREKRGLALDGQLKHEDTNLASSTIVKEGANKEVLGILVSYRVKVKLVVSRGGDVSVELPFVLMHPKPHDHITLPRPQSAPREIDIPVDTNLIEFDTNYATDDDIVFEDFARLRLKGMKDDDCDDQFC
Protocol: The assay was performed using commercially available reagents (Duolink, Sigma-Aldrich, St Louis, MO), with transfection of Hela V5-tau cells with WT β-arrestin2-flag and β-arrestin2-myc, without and with the mutant β-arrestin2 ΔIP6C or β-arrestin2 ΔIP6N constructs. Cells were fixed with 4% paraformaldehyde for 15 min at room temperature and washed with 0.2% triton in TBS. After washing, cells were blocked with 0.2% Triton in 3% Normal goat serum for 1 hour at room temperature. After applying primary antibodies overnight at 4° C., cells were washed and incubated with the PLA probes at 37° C. (1 h), washed with buffer A, incubated with ligation solution at 37° C. (30 min), washed with washing buffer A, incubated with amplification solution at 37° C. […]
When DIV 18 tau P301S cortical primary neurons were transduced with either β-arrestin2 ΔIP6C or ΔIP6N lentivirus, an approximately 50% reduction in tau compared to control was evident (FIGS. 4A,4B), which represents a key finding relevant to both mechanism of action and potential therapeutic strategies. […] To determine whether β-arrestin2 oligomerization status alters tau aggregation itself, filter-trap assays were performed from Hela-V5-tau cells transfected with β-arrestin2 variants, in which tau aggregates from detergent-soluble and-insoluble lysates were captured by cellulose acetate membranes and assessed by immunoblotting.

β-arrestin2 oligomers = β-arrestin2 oligomers (Rattus norvegicus, UniProt P29067); conditions: BRET and co-immunoprecipitation; cited from earlier work
Sequence of β-arrestin2 oligomers (P29067 whole entry): as above

tau aggregates = assay: Filter-trap assay for tau aggregates from Hela-V5-tau cells; assay type: cell-based; conditions: vs control vector
Excerpt: as §1
When DIV 18 tau P301S cortical primary neurons were transduced with either β-arrestin2 ΔIP6C or ΔIP6N lentivirus, an approximately 50% reduction in tau compared to control was evident (FIGS. 4A,4B), which represents a key finding relevant to both mechanism of action and potential therapeutic strategies. […] Also investigated was whether β-arrestin2 oligomerization is required for slowing tau turnover by disrupting oligomerization using these mutants in several models. […] To determine whether β-arrestin2 oligomerization status alters tau aggregation itself, filter-trap assays were performed from Hela-V5-tau cells transfected with β-arrestin2 variants, in which tau aggregates from detergent-soluble and-insoluble lysates were captured by cellulose acetate membranes and assessed by immunoblotting.

B1: β-arrestin2 ΔIP6N: β-arrestin2 N-terminal domain mutant (K158A, K161A, and R162A), incapable of forming oligomers; dominant negative (protein, UniProt P32121 1-409, looked up, variant K158A K161A R162A)
Beta-arrestin-2: MGEKPGTRVFKKSSPNCKLTVYLGKRDFVDHLDKVDPVDGVVLVDPDYLKDRKVFVTLTCAFRYGREDLDVLGLSFRKDLFIATYQAFPPVPNPPRPPTRLQDRLLRKLGQHAHPFFFTIPQNLPCSVTLQPGPEDTGKACGVDFEIRAFCAKSLEEASHAANSVRLVIRKVQFAPEKPGPQPSAETTRHFLMSDRSLHLEASLDKELYYHGEPLNVNVHVTNNSTKTVKKIKVSVRQYADICLFSTAQYKCPVAQLEQDDQVSPSSTFCKVYTITPLLSDNREKRGLALDGKLKHEDTNLASSTIVKEGANKEVLGILVSYRVKVKLVVSRGGDVSVELPFVLMHPKPHDHIPLPRPQSAAPETDVPVDTNLIEFDTNYATDDDIVFEDFARLRLKGMKDDDYDDQLC
modifications: GFP or YFP tag
notes: dominant negative
**Q.** For B1, which tau by immunocytochemistry (tau in Hela-V5-tau cells) is on record?
**A.** significant reductions

**Q.** What about the “interaction with p62 compared to β-arrestin2” value (p62) of the same molecule?
**A.** much less interaction with p62

**Q.** What about the “βarrestin1 homo-oligomers (PLA puncta)” value [1] of the same molecule?
**A.** significantly reduce

**Q.** What about the “β-arrestin2-flag and β-arrestin2-myc interaction (PLA)” value [2] of the same molecule?
**A.** significantly reduced

**Q.** And the oligomer formation (β-arrestin2 oligomers)?
**A.** incapable of forming oligomers

**Q.** And the “tau aggregates in detergent-insoluble lysates (filter-trap)” value (tau aggregates)?
**A.** significantly reduced tau aggregates
